Laboratory results taken from article PMC9734377 (Communications Biology, 2022).
Values joined by “and” are separate entries in the source; they are usually repeats but may differ in a detail not shown here. Equal values may be shown once.

Columns and labels:
[1] = biological target: T1, LdG6PD wt dimer (LdG6PD^Dimer) (Leishmania donovani, UniProt A2CIL3); experiment: dead-end inhibition, Lineweaver-Burk; assay type: biochemical; conditions: 0-20 µM GlcN 6-P; competitive against G6P, not against NADP+; pH 7.5, 25 °C; oligomer fraction not told
T1 construct: gene g6pdh
T1 sequence (A2CIL3 1-562): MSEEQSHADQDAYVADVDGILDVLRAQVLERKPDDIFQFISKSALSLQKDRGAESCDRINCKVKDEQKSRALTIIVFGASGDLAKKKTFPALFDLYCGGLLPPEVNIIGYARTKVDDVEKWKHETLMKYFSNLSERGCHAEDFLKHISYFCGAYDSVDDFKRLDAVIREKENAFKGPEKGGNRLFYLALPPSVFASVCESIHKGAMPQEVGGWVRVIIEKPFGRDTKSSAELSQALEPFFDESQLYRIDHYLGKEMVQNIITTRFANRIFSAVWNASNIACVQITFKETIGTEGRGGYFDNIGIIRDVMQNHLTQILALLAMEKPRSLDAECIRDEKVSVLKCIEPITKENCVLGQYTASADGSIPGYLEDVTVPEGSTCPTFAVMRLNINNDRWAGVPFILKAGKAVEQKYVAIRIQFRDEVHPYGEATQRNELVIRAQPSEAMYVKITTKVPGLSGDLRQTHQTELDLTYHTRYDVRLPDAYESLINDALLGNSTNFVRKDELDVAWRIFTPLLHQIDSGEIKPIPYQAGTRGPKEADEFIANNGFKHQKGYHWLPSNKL

[2] = biological target: T1, LdG6PD wt dimer (LdG6PD^Dimer); experiment: product inhibition, Lineweaver-Burk; assay type: biochemical; conditions: 0-80 µM NADPH; competitive against NADP+ (G6P 800 µM) and against G6P (NADP+ 200 µM); pH 7.5, 25 °C; oligomer fraction not told
[3] = system: NC(=O)c1ccc[n+]([C@@H]2O[C@H](COP(=O)(O)OP(=O)(O)OC[C@H]3O[C@@H](n4cnc5c(N)ncnc54)[C@H](OP(=O)(O)O)[C@@H]3O)[C@@H](O)[C@H]2O)c1; experiment: purified protein; assay type: biochemical, Leishmania donovani; conditions: 800 µM G6P, 50 mM Tris pH 7.5, 3.3 mM MgCl2, 25 °C, crystal ligand given as NADP(H), redox state open
[4] = biological target: Leishmania donovani glucose 6-phosphate dehydrogenase C138S mutant (Leishmania donovani); experiment: SEC
[5] = biological target: Leishmania donovani glucose 6-phosphate dehydrogenase truncation mutant lacking the first 59 N-terminal amino acids (Leishmania donovani); experiment: SEC
[6] = biological target: Leishmania donovani glucose 6-phosphate dehydrogenase wild type (Leishmania donovani); experiment: SEC; HiLoad 16/60 Superdex 200, buffer A (500 mM NaCl, 50 mM Tris, pH 7.8), native conditions; for LdG6PD wt also 12-300 uM enzyme, 5 mM DTT, 2 mM H2O2, substrates (100 uM G6P, NADP+), 0.1-1 M NaCl, pH 4.8-7.8, all without change of the profile; self-association: monomers to dimer and dimers to tetramer
[7] = biological target: Leishmania major glucose 6-phosphate dehydrogenase wild type (Leishmania major); experiment: as above
purified protein [8] = substrate: NC(=O)c1ccc[n+]([C@@H]2O[C@H](COP(=O)(O)OP(=O)(O)OC[C@H]3O[C@@H](n4cnc5c(N)ncnc54)[C@H](OP(=O)(O)O)[C@@H]3O)[C@@H](O)[C@H]2O)c1; experiment: purified protein; conditions: 800 µM G6P
purified protein [9] = substrate: NC(=O)c1ccc[n+]([C@@H]2O[C@H](COP(=O)(O)OP(=O)(O)OC[C@H]3O[C@@H](n4cnc5c(N)ncnc54)[C@H](OP(=O)(O)O)[C@@H]3O)[C@@H](O)[C@H]2O)c1; experiment: purified protein; assay type: biochemical, Leishmania donovani; conditions: 800 µM G6P, 50 mM Tris pH 7.5, 3.3 mM MgCl2, 25 °C, tetramer fraction

Which “dead-end inhibition, Lineweaver-Burk” value [1] does the source give for `N[C@H]1C(O)O[C@H](COP(=O)(O)O)[C@@H](O)[C@@H]1O` (stereo partly shown) [GlcN 6-P, glucosamine 6-phosphate] here?
Its value is “GlcN 6-P shows a competitive inhibition pattern towards G6P”.

For `NC(=O)C1=CN([C@@H]2O[C@H](COP(=O)(O)OP(=O)(O)OC[C@H]3O[C@@H](n4cnc5c(N)ncnc54)[C@H](OP(=O)(O)O)[C@@H]3O)[C@@H](O)[C@H]2O)C=CC1` [NADPH], which “product inhibition, Lineweaver-Burk” value [2] is on record?
Its value is “NADPH was found to be a competitive inhibitor with respect to NADP^+ in LdG6PD”.

With LdG6PD^60–562 (Leishmania donovani) as the molecule, how does the Km [3] read?
Its Km is 14.3 ± 2.2 µM.

And the Vmax [3]?
The Vmax was 233 µmol/min/mg.

And the kcat [3]?
The kcat was 234 ± 18.8 s⁻¹.

And the kcat/Km [3]?
Its kcat/Km is 1.7e+07 ± 2.5e+06 M⁻¹ s⁻¹.

“Leishmania donovani glucose 6-phosphate dehydrogenase C138S mutant (enzyme)” was tested. Which stoichiometry N [4] did it give?
The stoichiometry N was 2 and 4.

Which stoichiometry N [5] does the source give for “Leishmania donovani glucose 6-phosphate dehydrogenase truncation mutant lacking the first 59 N-terminal amino acids (domain or fragment)” here?
The stoichiometry N was 2.

With “Leishmania donovani glucose 6-phosphate dehydrogenase wild type (enzyme)” as the molecule, how does the stoichiometry N [6] read?
The stoichiometry N was 4 and 2.

“Leishmania major glucose 6-phosphate dehydrogenase wild type (enzyme)” was tested. Which stoichiometry N [7] did it give?
The stoichiometry N was 2 and 4.

B1: LmG6PD wt (Leishmania major) (protein)
chain: MSEEQSHADQDAYVADVDGILDVLRAEVLERKPDDVFQFISQSALSLQKDRGAESCDRINCKVTDEQKSRALTIIVFGASGDLAKKKTFPALFDLYCGGLLPPEVNVIGYARTKVDDAERWKRETLMTYFSNVPERACHAEDFLKHISYFCGSYDKVDDFKRLDAVIREKENAFKGPEKGGNRLFYLALPPSVFASVCESIHKGAMPQEVGGWARVIIEKPFGRDTKSSAELSRALEPFFDESQLYRIDHYLGKEMVQNIITTRFANRIFSAVWNSNNIACVQITFKETIGTEGRGGYFDGIGIIRDVMQNHLTQILALLAMEKPRSLDAECIRDEKVSVLKCIEPITKENCVLGQYTASADGSIPGYQEDVTVPEGSTCPTFAVMRLNINNDRWAGVPFILKAGKAVEQKYVAIRIQFKDEVHPYGEATQRNELVIRAQPSEAMYVKITTKVPGLSGDLRQTHQTELDLTYHTRYDVRLPDAYESLINDALLGNSTNFVRKDELDVAWRIFTPLLHQIDCGEIKPIPYQAGTRGPKEADEFITNNGFKHQKGYQWLPSNKL
With B1 as the molecule, how does the Km (purified protein [8]; 50 mM Tris pH 7.5, 3.3 mM MgCl2, 25 °C) read?
Its Km is 11.4 ± 1.5 µM.

B2: LdG6PD wt dimer (LdG6PD^Dimer) (Leishmania donovani) (protein)
chain: T1 sequence (A2CIL3 1-562)
How did the Km (purified protein [8]; 50 mM Tris pH 7.5, 3.3 mM MgCl2, 0.005% Tween, 1 mg/mL BSA, 25 °C, dimer fraction, crystal ligand given as NADP(H), redox state open) turn out when B2 was run?
Its Km is 15.9 ± 1.1 µM.

B3: LdG6PD wt tetramer (LdG6PD^Tetramer) (Leishmania donovani) (protein)
chain: T1 sequence (A2CIL3 1-562)
Which results are given for B3?
Km (purified protein [9]): 14.2 ± 0.9 µM; Vmax (purified protein [9]): 185 µmol/min/mg; kcat (purified protein [9]): 204 ± 13.6 s⁻¹; kcat/Km (purified protein [9]): 1.49e+07 ± 3e+06 M⁻¹ s⁻¹
